# In US20120090043A1, “TARGETS FOR RETROVIRUS ASSOCIATED DISEASES” (priority 2009, published 2012):
# B1: MYEF2: human host interactor protein, Gene ID 50804, expressed from transfected ORF vector (protein)
# chain: MADANKAEVPGATGGDSPHLQPAEPPGEPRREPHPAEAEKQQPQHSSSSNGVKMENDESAKEEKSDLKEKSTGSKKANRFHPYSKDKNSGAGEKKGPNRNRVFISNIPYDMKWQAIKDLMREKVGEVTYVELFKDAEGKSRGCGVVEFKDEEFVKKALETMNKYDLSGRPLNIKEDPDGENARRALQRTGGSFPGGHVPDMGSGLMNLPPSILNNPNIPPEVISNLQAGRLGSTIFVANLDFKVGWKKLKEVFSIAGTVKRADIKEDKDGKSRGMGTVTFEQAIEAVQAISMFNGQFLFDRPMHVKMDDKSVPHEEYRSHDGKTPQLPRGLGGIGMGLGPGGQPISASQLNIGGVMGNLGPGGMGMDGPGFGGMNRIGGGIGFGGLEAMNSMGGFGGVGRMGELYRGAMTSSMERDFGRGDIGINQGFGDSFGRLGSAMIGGFAGRIGSSNMGPVGSGISGGMGSMNSVTGGMGMGLDRMSSSFDRMGPGIGAILERSIDMDRGFLSGPMGSGMRERIGSKGNQIFVRNLPFDLTWQKLKEKFSQCGHVMFAEIKMENGKSKGCGTVRFDSPESAEKACRIMNGIKISGREIDVRLDRNA
# B2: KIF9: human host interactor protein, Gene ID 64147, expressed from transfected ORF vector (protein)
# chain: MGTRKKVHAFVRVKPTDDFAHEMIRYGDDKRSIDIHLKKDIRRGVVNNQQTDWSFKLDGVLHDASQDLVYETVAKDVVSQALDGYNGTIMCYGQTGAGKTYTMMGATENYKHRGILPRALQQVFRMIEERPTHAITVRVSYLEIYNESLFDLLSTLPYVGPSVTPMTIVENPQGVFIKGLSVHLTSQEEDAFSLLFEGETNRIIASHTMNKNSSRSHCIFTIYLEAHSRTLSEEKYITSKINLVDLAGSERLGKSGSEGQVLKEATYINKSLSFLEQAIIALGDQKRDHIPFRQCKLTHALKDSLGGNCNMVLVTNIYGEAAQLEETLSSLRFASRMKLVTTEPAINEKYDAERMVKNLEKELALLKQELAIHDSLTNRTFVTYDPMDEIQIAEINSQVRRYLEGTLDEIDIISLRQIKEVFNQFRVVLSQQEQEVESTLRRKYTLIDRNDFAAISAIQKAGLVDVDGHLVGEPEGQNFGLGVAPFSTKPGKKAKSKKTFKEPLSSLARKEGASSPVNGKDLDYVSTSKTQLVPSSKDGDVKDMLSRDRETSSIEPLPSDSPKEELRPIRPDTPPSKPVAFEEFKNEQGSEINRIFKENKSILNERRKRASETTQHINAIKREIDVTKEALNFQKSLREKQGKYENKGLMIIDEEEFLLILKLKDLKKQYRSEYQDLRDLRAEIQYCQHLVDQCRHRLLMEFDIWYNESFVIPEDMQMALKPGGSIRPGMVPVNRIVSLGEDDQDKFSQLQQRVLPEGPDSISFYNAKVKIEQKHNYLKTMMGLQQAHRK
# B3: LENG1: human host interactor protein, Gene ID 79165, expressed from transfected ORF vector (protein)
# chain: MNILPKKSWHVRNKDNVARVRRDEAQAREEEKERERRVLLAQQEARTEFLRKKARHQNSLPELEAAEAGAPGSGPVDLFRELLEEGKGVIRGNKEYKEEKRQEKERQEKALGILTYLGQSAAEAQTQPPWYQLPPGRGGPPPGPAPDEKIKSRLDPLREMQKHLGKKRQHGGDEGSRSRKEKEGSEKQRPKEPPSLDQLRAERLRREAAERSRAEALLARVQGRALQEGQPEEDETDDRRRRYNSQFNPQLARRPRQQDPHLTH
# B4: NIF3L1: human host interactor protein, Gene ID 60491, expressed from transfected ORF vector (protein)
# chain: MLSSCVRPVPTTVRFVDSLICNSSRSFMDLKALLSSLNDFASLSFAESWDNVGLLVEPSPPHTVNTLFLTNDLTEEVMEEVLQKKADLILSYHPPIFRPMKRITWNTWKERLVIRALENRVGIYSPHTAYDAAPQGVNNWLAKGLGACTSRPIHPSKAPNYPTEGNHRVEFNVNYTQDLDKVMSAVKGIDGVSVTSFSARTGNEEQTRINLNCTQKALMQVVDFLSRNKQLYQKTEILSLEKPLLLHTGMGRLCTLDESVSLATMIDRIKRHLKLSHIRLALGVGRTLESQVKVVALCAGSGSSVLQGVEADLYLTGEMSHHDTLDAASQGINVILCEHSNTERGFLSDLRDMLDSHLENKINIILSETDRDPLQVV
# B5: SPG21: human host interactor protein, Gene ID 51324, expressed from transfected ORF vector (protein)
# chain: MGEIKVSPDYNWFRGTVPLKKIIVDDDDSKIWSLYDAGPRSIRCPLIFLPPVSGTADVFFRQILALTGWGYRVIALQYPVYWDHLEFCDGFRKLLDHLQLDKVHLFGASLGGFLAQKFAEYTHKSPRVHSLILCNSFSDTSIFNQTWTANSFWLMPAFMLKKIVLGNFSSGPVDPMMADAIDFMVDRLESLGQSELASRLTLNCQNSYVEPHKIRDIPVTIMDVFDQSALSTEAKEEMYKLYPNARRAHLKTGGNFPYLCRSAEVNLYVQIHLLQFHGTKYAAIDPSMVSAEELEVQKGSLGISQEEQ
# B6: NEFL: human host interactor protein, Gene ID 4747, expressed from transfected ORF vector (protein)
# chain: MSSFSYEPYYSTSYKRRYVETPRVHISSVRSGYSTARSAYSSYSAPVSSSLSVRRSYSSSSGSLMPSLENLDLSQVAAISNDLKSIRTQEKAQLQDLNDRFASFIERVHELEQQNKVLEAELLVLRQKHSEPSRFRALYEQEIRDLRLAAEDATNEKQALQGEREGLEETLRNLQARYEEEVLSREDAEGRLMEARKGADEAALARAELEKRIDSLMDEISFLKKVHEEEIAELQAQIQYAQISVEMDVTKPDLSAALKDIRAQYEKLAAKNMQNAEEWFKSRFTVLTESAAKNTDAVRAAKDEVSESRRLLKAKTLEIEACRGMNEALEKQLQELEDKQNADISAMQDTINKLENELRTTKSEMARYLKEYQDLLNVKMALDIEIAAYRKLLEGEETRLSFTSVGSITSGYSQSSQVFGRSAYGGLQTSSYLMSTRSFPSYYTSHVQEEQIEVEETIEAAKAEEAKDEPPSEGEAEEEEKDKEEAEEEEAAEEEEAAKEESEEAKEEEEGGEGEEGEETKEAEEEEKKVEGAGEEQAAKKKD
# B7: RNPS1: human host interactor protein, Gene ID 10921, expressed from transfected ORF vector (protein)
# chain: MDLSGVKKKSLLGVKENNKKSSTRAPSPTKRKDRSDEKSKDRSKDKGATKESSEKDRGRDKTRKRRSASSGSSSTRSRSSSTSSSGSSTSTGSSSGSSSSSASSRSGSSSTSRSSSSSSSSGSPSPSRRRHDNRRRSRSKSKPPKRDEKERKRRSPSPKPTKVHIGRLTRNVTKDHIMEIFSTYGKIKMIDMPVERMHPHLSKGYAYVEFENPDEAEKALKHMDGGQIDGQEITATAVLAPWPRPPPRRFSPPRRMLPPPPMWRRSPPRMRRRSRSPRRRSPVRRRSRSPGRRRHRSRSSSNSSR
# B8: KLC3: human host interactor protein, Gene ID 147700, expressed from transfected ORF vector (protein)
# chain: MSVQVAAPGSAGLGPERLSPEELVRQTRQVVQGLEALRAEHHGLAGHLAEALAGQGPAAGLEMLEEKQQVVSHSLEAIELGLGEAQVLLALSAHVGALEAEKQRLRSQARRLAQENVWLREELEETQRRLRASEESVAQLEEEKRHLEFLGQLRQYDPPAESQQSESPPRRDSLASLFPSEEEERKGPEAAGAAAAQQGGYEIPARLRTLHNLVIQYAGQGRYEVAVPLCRQALEDLERSSGHCHPDVATMLNILALVYRDQNKYKEATDLLHDALQIREQTLGPEHPAVAATLNNLAVLYGKRGRYREAEPLCQRALEIREKVLGADHPDVAKQLNNLALLCQNQGKFEDVERHYARALSIYEALGGPHDPNVAKTKNNLASAYLKQNKYQQAEELYKEILHKEDLPAPLGAPNTGTAGDAEQALRRSSSLSKIRESIRRGSEKLVSRLRGEAAAGAAGMKRAMSLNTLNVDAPRAPGTQFPSWHLDKAPRTLSASTQDLSPH
# B9: MAD1L1: human host interactor protein, Gene ID 8379, expressed from transfected ORF vector (protein)
# chain: MEDLGENTMVLSTLRSLNNFISQRVEGGSGLDISTSAPGSLQMQYQQSMQLEERAEQIRSKSHLIQVEREKMQMELSHKRARVELERAASTSARNYEREVDRNQELLTRIRQLQEREAGAEEKMQEQLERNRQCQQNLDAASKRLREKEDSLAQAGETINALKGRISELQWSVMDQEMRVKRLESEKQELQEQLDLQHKKCQEANQKIQELQASQEARADHEQQIKDLEQKLSLQEQDAAIVKNMKSELVRLPRLERELKQLREESAHLREMRETNGLLQEELEGLQRKLGRQEKMQETLVGLELENERLLAKLQSWERLDQTMGLSIRTPEDLSRFVVELQQRELALKDKNSAVTSSARGLEKARQQLQEELRQVSGQLLEERKKRETHEALARRLQKRVLLLTKERDGMRAILGSYDSELTPAEYSPQLTRRMREAEDMVQKVHSHSAEMEAQLSQALEELGGQKQRADMLEMELKMLKSQSSSAEQSFLFSREEADTLRLKVEELEGERSRLEEEKRMLEAQLERRALQGDYDQSRTKVLHMSLNPTSVARQRLREDHSQLQAECERLRGLLRAMERGGTVPADLEAAAASLPSSKEVAELKKQVESAELKNQRLKEVFQTKIQEFRKACYTLTGYQIDITTENQYRLTSLYAEHPGDCLIFKATSPSGSKMQLLETEFSHTVGELIEVHLRRQDSIPAFLSSLTLELFSRQTVA
# Test system: HTLV-1 LTR promoter transactivation by HTLV-1 Tax
# Assay: Transactivation assay, HTLV-1 LTR luciferase reporter with HTLV-1 Tax
# Format: cell-based
# Conditions: HEK293 cells co-transfected with pHTLV1LTR-Luc, HTLV-1 Tax and the human ORF; relative luciferase activity 24 h post-transfection; positive if >=2 or <=0.5 and p<0.05
# Excerpt: Twenty-four hours post-transfection, cells were washed three times with PBS, lysed and luciferase activities determined from two independent transfection experiments in triplicate. We computed a paired t-test to assess the difference of the means between samples with and without the human interactor. For a trial to be considered positive, the relative luciferase activities has to be >=2 or <=0.5, and the p-value of the t-test<0.05.
# Expression vectors encoding human ORFs and HIV-1 Tat or HTLV-1 Tax proteins were tested in a transactivation reporter assay against reporter plasmids harboring HIV-1 or HTLV-1 viral promoter sequences cloned upstream of the luciferase reporter gene. […] Wherever not expressly specified, constructs used herein were generally made by sub-cloning entry clones from the ORFeome V3.1 into suitable destination vectors.
row,Molecule,HTLV_LTR transactiv. [fold change]
1,B1,2.53
2,B2,0.37
3,B3,0.34
4,B4,0.39
5,B5,0.21
6,B6,0.45
7,B7,11.12
8,B8,0.31
9,B9,0.20
